Experimental data reported in article PMC9482650, “Quantitative fragmentomics allow affinity mapping of interactomes” (Nature Communications, 2022).

T1: LIN7B, Q9HAP6
T1 sequence (Q9HAP6 88-185, limits assumed, looked up): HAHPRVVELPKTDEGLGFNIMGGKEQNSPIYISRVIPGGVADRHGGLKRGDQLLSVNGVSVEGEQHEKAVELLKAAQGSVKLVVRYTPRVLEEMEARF

T2: NHERF3_3, Q5T2W1
T2 sequence (Q5T2W1 238-333, limits assumed, looked up): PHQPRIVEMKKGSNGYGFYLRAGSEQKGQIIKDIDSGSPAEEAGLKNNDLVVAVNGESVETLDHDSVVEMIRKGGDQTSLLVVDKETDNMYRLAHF

T3: RHPN1, Q8TCX5
T3 sequence (Q8TCX5 508-602, limits assumed, looked up): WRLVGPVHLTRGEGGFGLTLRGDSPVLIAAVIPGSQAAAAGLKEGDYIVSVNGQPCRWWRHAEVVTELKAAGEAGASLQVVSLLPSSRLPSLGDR

T4: ARHGEF11, O15085
T4 sequence (O15085 42-136, limits assumed, looked up): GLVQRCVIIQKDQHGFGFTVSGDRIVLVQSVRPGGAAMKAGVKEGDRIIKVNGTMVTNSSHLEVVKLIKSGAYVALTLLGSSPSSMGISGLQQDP

T5: FRMPD1, Q5SYB0
T5 sequence (Q5SYB0 52-145, limits assumed, looked up): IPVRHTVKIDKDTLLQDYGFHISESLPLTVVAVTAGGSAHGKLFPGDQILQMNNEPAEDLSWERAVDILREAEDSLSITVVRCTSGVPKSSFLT

T6: DLG3_2, Q92796
T6 sequence (Q92796 221-321, limits assumed, looked up): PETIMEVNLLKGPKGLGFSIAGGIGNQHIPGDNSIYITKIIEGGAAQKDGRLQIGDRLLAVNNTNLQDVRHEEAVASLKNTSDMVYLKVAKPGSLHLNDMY

T7: HTRA3, P83110
T7 sequence (P83110 354-453, limits assumed, looked up): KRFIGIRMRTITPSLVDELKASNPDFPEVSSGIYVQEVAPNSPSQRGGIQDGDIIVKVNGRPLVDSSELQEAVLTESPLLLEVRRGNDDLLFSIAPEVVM

T8: APBA1_1, Q02410
T8 sequence (Q02410 651-752, limits assumed, looked up): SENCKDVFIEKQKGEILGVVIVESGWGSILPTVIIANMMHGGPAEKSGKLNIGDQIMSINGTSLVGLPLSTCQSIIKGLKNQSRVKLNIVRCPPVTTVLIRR

T9: SNTA1, Q13424
T9 sequence (Q13424 82-180, limits assumed, looked up): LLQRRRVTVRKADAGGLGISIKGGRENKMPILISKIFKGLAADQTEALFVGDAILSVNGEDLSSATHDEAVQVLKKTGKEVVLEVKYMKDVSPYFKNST


Assays:
Assay in all cases: holdup assay
Design in all cases: key: below the threshold = too weak to quantify, mostly under pKd 3.1 to 4
Details in all cases: plain residues with an end cap or a label only (N-terminal biotin on a linker: ado-ado)
[1] = biological target: FRMPD2_3, Q68DX3
[2] = biological target: Inadl_8, Q8NI35
[3] = biological target: T1, LIN7B, Q9HAP6
[4] = biological target: NHERF4_4, Q86UT5
[5] = biological target: Inadl_10, Q8NI35
[6] = biological target: T2, NHERF3_3, Q5T2W1
[7] = biological target: MAGI2_3, Q86UL8
[8] = biological target: T3, RHPN1, Q8TCX5
[9] = biological target: Inadl_4, Q8NI35
[10] = biological target: PARD3_3, Q8TEW0
[11] = biological target: GOPC, Q9HD26
[12] = biological target: LNX1_2, Q8TBB1
[13] = biological target: MAGI3_2, Q5TCQ9
[14] = biological target: T4, ARHGEF11, O15085
[15] = biological target: FRMPD2_1, Q68DX3
[16] = biological target: MAGI1_2, Q96QZ7
[17] = biological target: T5, FRMPD1, Q5SYB0
[18] = biological target: T6, DLG3_2, Q92796
[19] = biological target: GIPC2, Q8TF65
[20] = biological target: DLG4_2, P78352
[21] = biological target: T7, HTRA3, P83110
[22] = biological target: T8, APBA1_1, Q02410
[23] = biological target: LNX1_3, Q8TBB1
[24] = biological target: MAST2, Q6P0Q8
[25] = biological target: Inadl_6, Q8NI35
[26] = biological target: Inadl_1, Q8NI35
[27] = biological target: T9, SNTA1, Q13424
[28] = biological target: GORASP1, Q9BQQ3
Chain of GORASP1, Q9BQQ3 (Q9BQQ3 1-208): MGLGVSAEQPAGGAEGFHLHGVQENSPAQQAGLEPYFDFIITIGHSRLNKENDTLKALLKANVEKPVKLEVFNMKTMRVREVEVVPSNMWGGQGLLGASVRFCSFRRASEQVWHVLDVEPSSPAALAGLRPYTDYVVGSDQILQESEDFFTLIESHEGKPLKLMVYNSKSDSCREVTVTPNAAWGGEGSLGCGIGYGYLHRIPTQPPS

Chain of PARD3_3, Q8TEW0 (Q8TEW0 582-685): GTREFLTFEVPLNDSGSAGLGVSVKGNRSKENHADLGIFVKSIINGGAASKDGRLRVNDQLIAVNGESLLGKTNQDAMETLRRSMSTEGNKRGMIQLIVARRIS
Chain of DLG4_2, P78352 (P78352 155-259): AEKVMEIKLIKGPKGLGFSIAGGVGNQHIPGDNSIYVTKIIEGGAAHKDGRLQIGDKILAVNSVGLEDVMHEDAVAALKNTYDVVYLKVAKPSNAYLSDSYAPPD
Chain of MAGI3_2, Q5TCQ9 (Q5TCQ9 398-503): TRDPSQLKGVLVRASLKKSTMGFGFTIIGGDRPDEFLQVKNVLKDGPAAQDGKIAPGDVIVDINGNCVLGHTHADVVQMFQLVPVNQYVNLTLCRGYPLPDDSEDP
Chain of MAST2, Q6P0Q8 (Q6P0Q8 1099-1202): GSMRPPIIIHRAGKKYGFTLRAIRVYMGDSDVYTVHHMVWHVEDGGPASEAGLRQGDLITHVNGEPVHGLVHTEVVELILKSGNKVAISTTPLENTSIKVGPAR
Chain of Inadl_6, Q8NI35 (Q8NI35 1058-1167): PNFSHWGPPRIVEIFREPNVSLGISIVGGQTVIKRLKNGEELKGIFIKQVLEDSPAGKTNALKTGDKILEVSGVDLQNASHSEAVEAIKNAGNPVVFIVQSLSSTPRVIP
Chain of Inadl_1, Q8NI35 (Q8NI35 113-229): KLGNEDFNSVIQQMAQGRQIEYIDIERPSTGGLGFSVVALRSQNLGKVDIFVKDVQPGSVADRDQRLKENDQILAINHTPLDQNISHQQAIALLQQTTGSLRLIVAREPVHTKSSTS
Chain of Inadl_8, Q8NI35 (Q8NI35 1425-1530): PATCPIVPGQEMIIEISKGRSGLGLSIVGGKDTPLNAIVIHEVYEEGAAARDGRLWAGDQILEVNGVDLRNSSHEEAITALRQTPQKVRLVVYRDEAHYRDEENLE
Chain of MAGI2_3, Q86UL8 (Q86UL8 600-682): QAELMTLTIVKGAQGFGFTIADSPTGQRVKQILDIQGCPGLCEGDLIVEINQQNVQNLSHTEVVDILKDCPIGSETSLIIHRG
Chain of GIPC2, Q8TF65 (Q8TF65 112-203): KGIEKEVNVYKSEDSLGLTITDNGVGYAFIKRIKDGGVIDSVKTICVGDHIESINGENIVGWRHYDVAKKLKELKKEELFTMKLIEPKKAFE
Chain of LNX1_2, Q8TBB1 (Q8TBB1 371-470): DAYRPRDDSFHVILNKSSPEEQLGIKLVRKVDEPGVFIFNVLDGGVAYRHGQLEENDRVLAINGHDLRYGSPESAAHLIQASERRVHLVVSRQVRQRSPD
Chain of LNX1_3, Q8TBB1 (Q8TBB1 500-596): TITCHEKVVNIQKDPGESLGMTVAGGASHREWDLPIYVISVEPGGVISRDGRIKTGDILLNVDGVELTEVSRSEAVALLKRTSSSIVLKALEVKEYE
Chain of FRMPD2_3, Q68DX3 (Q68DX3 1073-1166): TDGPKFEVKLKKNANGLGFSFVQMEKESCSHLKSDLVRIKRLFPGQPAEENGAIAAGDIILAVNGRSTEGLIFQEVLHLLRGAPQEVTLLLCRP
Chain of FRMPD2_1, Q68DX3 (Q68DX3 770-861): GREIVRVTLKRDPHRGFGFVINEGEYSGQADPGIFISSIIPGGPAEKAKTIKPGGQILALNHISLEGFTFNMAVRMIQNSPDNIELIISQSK
Chain of NHERF4_4, Q86UT5 (Q86UT5 464-550): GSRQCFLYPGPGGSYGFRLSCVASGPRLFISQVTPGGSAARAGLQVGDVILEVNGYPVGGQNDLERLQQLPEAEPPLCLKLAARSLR
Chain of Inadl_10, Q8NI35 (Q8NI35 1673-1763): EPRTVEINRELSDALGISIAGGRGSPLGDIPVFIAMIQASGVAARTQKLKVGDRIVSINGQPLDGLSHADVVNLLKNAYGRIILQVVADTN
Chain of MAGI1_2, Q96QZ7 (Q96QZ7 456-580): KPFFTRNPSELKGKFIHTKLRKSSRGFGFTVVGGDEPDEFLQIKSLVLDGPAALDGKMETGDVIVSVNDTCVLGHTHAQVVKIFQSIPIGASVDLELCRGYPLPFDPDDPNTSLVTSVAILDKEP
Chain of Inadl_4, Q8NI35 (Q8NI35 547-651): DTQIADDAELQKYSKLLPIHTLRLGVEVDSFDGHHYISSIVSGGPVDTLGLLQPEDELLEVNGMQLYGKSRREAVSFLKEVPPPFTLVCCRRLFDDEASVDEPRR

Binder	pKd [1]	pKd [2]	pKd [3]	pKd [4]	pKd [5]	pKd [6]	pKd [7]	pKd [8]	pKd [9]	pKd [10]	pKd [11]	pKd [12]	pKd [13]	pKd [14]	pKd [15]	pKd [16]	pKd [17]	pKd [18]	pKd [19]	pKd [20]	further results
SGSLKLMTTV [DACT1, Q9NYF0]	below the threshold	4.09	below the threshold	below the threshold	3.84	below the threshold	below the threshold	4.58	below the threshold	below the threshold	3.95	3.84	5.21	4.71	below the threshold	5.1	below the threshold	5.12	below the threshold	5.22	pKd [21]: below the threshold; pKd [22]: below the threshold; pKd [23]: below the threshold; pKd [24]: 5.36; pKd [25]: below the threshold; pKd [26]: below the threshold; pKd [27]: 3.49; pKd [28]: 3.56
LKVPPEERLI [CRB2, Q5IJ48]	below the threshold	below the threshold	below the threshold	below the threshold	below the threshold	below the threshold	below the threshold	below the threshold	below the threshold	3.85	below the threshold	below the threshold	below the threshold	below the threshold	below the threshold	below the threshold	below the threshold	below the threshold	below the threshold	below the threshold	pKd [21]: below the threshold; pKd [22]: below the threshold; pKd [23]: below the threshold; pKd [24]: 4.3; pKd [25]: below the threshold; pKd [26]: below the threshold; pKd [27]: below the threshold; pKd [28]: below the threshold
ETQVTAETVI [TMEM225B, P0DP42]	below the threshold	below the threshold	below the threshold	below the threshold	below the threshold	below the threshold	below the threshold	4.44	below the threshold	4.35	below the threshold	below the threshold	3.79	below the threshold	below the threshold	below the threshold	below the threshold	4.43	below the threshold	4.05	pKd [21]: below the threshold; pKd [22]: below the threshold; pKd [23]: below the threshold; pKd [24]: 5.12; pKd [25]: below the threshold; pKd [26]: below the threshold; pKd [27]: 4.68; pKd [28]: 3.67
SNAGNTATKA [NOSTRIN, Q8IVI9]	below the threshold	below the threshold	3.74	below the threshold	below the threshold	below the threshold	below the threshold	below the threshold	below the threshold	below the threshold	below the threshold	below the threshold	below the threshold	below the threshold	below the threshold	below the threshold	below the threshold	4.25	below the threshold	below the threshold	pKd [21]: below the threshold; pKd [22]: below the threshold; pKd [23]: below the threshold; pKd [24]: 3.59; pKd [25]: below the threshold; pKd [26]: below the threshold; pKd [27]: below the threshold; pKd [28]: below the threshold
